Results on two molecules are retold here after publication PMC3576412.

One experiment deals with Im9 (Escherichia coli) (UniProt P13479). The note with it: cited from earlier work.
Experiment [1] addresses DNase domain of colicin E9, E9 (S3C) (E. coli). Kind of experiment: dynamic force spectroscopy (AFM).

As to “Colicin E9 DNase domain (from UniProt P09883)”, the Kd (usually the constant that tells how readily two partners part at equilibrium) with Im9 (Escherichia coli) was 0.016 pM.

B1: Im2 (D33A), pulled from residue 81 (natural protein)
chain: MELKHSISDYTEAEFLEFVKKIARAEGATEEDANKLVREFERLTEHPDGSDLIYYPRDDREDSPEGIVKEIKEWRAANGKCGFKQG
Regarding B1, in experiment [1], the k0F off (outer barrier) was 7.6 s⁻¹.
